# Laboratory results published in patent US20110091994A1, “Methods for Screening Compounds for Treating and/or Preventing an Hepatitis C Virus Infection” (priority 2008, published 2011).
# Like-named read-outs stand apart in the source and are kept apart here.
# Assays:
# [1] = biological target: T1, HCV ORFs (Gal4-DB fusions) (Hepatitis C virus genotype 1b, UniProt Q9WMX2); assay type: binding, HCV genotype 1b, isolate con1; conditions: human protein as prey
# T1 construct: expressed in transfected cells; host or cells: Saccharomyces cerevisiae MAV203 (IMAP1) / AH109 (IMAP2)
# [2] = system: HCV ORFs (Gal4-DB fusions); assay type: binding, HCV genotype 1b, isolate con1; conditions: human protein listed by gene symbol; the value names the HCV protein it interacts with
# HCV proteins = biological target: T2, HCV proteins (Hepatitis C virus genotype 1b, UniProt Q9WMX2); test: Validation by Y2H pairwise matrices; assay type: binding;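 further: yeast two-hybrid pairwise tests of interactions first found in Y2H screens of HCV bait proteins against human cDNA libraries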
# T2 construct: expressed in transfected cells
# [3] = validation of interaction with HCV protein CORE
# [4] = validation of interaction with HCV protein NS3
# [5] = interaction with HCV protein NS5B
# [6] = validation of interaction with HCV protein E2
# [7] = validation of interaction with HCV protein NS2
# [8] = validation of interaction with HCV protein NS4A
# [9] = validation of interaction with HCV protein E1
# 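Wherever IMAP Y2H IMAP1 (number of IST) is given: yeast two-hybrid screens using HCV genotype 1b proteins fused to Gal4-DB as baits against prey cDNA libraries from human spleen and foetal brain, IMAP1 via transformation and IMAP2 via mating.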
# 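Wherever IMAP Y2H IMAP2 (number of IST) is given: yeast two-hybrid screens using HCV genotype 1b proteins fused to Gal4-DB as baits against prey cDNA libraries from human spleen and foetal brain, IMAP1 via transformation and IMAP2 via mating.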
# 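Wherever Interaction with viral protein is given: yeast two-hybrid screens using HCV genotype 1b proteins fused to Gal4-DB as baits against prey cDNA libraries from human spleen and foetal brain, IMAP1 via transformation and IMAP2 via mating.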
Substance,Interaction with viral protein [2],IMAP Y2H IMAP1 (number of IST) ([1]; HCV protein NS3 as bait),Y2H matrices (HCV proteins; [4]),other results
AGRN,CORE,–,–,IMAP Y2H IMAP1 (number of IST) ([1]; HCV protein CORE as bait): 1; Y2H matrices (HCV proteins; [3]): +
ANKRD12,NS3,1,+,–
APOA1,NS3/4A and NS4B and NS2 and NS3,–,–,–
ARNT,NS3,1,+,–
ASXL1,NS5A and NS3,1,+,–
AXIN1,NS5A,–,–,IMAP Y2H IMAP2 (number of IST) ([1]; HCV protein NS5A as bait): 1
BZRAP1,NS3,1,+,–
CADPS,NS5A,–,–,IMAP Y2H IMAP2 (number of IST) ([1]; HCV protein NS5A as bait): 1
CADPS2,NS5A,–,–,IMAP Y2H IMAP2 (number of IST) ([1]; HCV protein NS5A as bait): 1
CELSR2,NS3,1,+,–
CEP63,NS5A,–,–,IMAP Y2H IMAP2 (number of IST) ([1]; HCV protein NS5A as bait): 1
CEP152,NS3,1,+,–
CEP192,NS3,1,+,–
CEP250,NS5A,–,–,IMAP Y2H IMAP2 (number of IST) ([1]; HCV protein NS5A as bait): 15; IMAP Y2H IMAP2 (number of IST) ([1]; HCV protein NS5B as bait): 1
CFP,NS3,4,+,–
COL4A2,CORE,–,–,IMAP Y2H IMAP1 (number of IST) ([1]; HCV protein CORE as bait): 1; Y2H matrices (HCV proteins; [3]): +
CSNK2B,NS3,3,+,–
DOCK7,NS3,–,–,IMAP Y2H IMAP2 (number of IST) ([1]; HCV protein NS3 as bait): 2
FBN3,NS3,2,+,–
FHL2,NS5A,–,–,IMAP Y2H IMAP2 (number of IST) ([1]; HCV protein NS5A as bait): 1
FLAD1,NS3,1,+,–
GAA,NS3,2,+,–
GAPDH,CORE,–,–,IMAP Y2H IMAP1 (number of IST) ([1]; HCV protein CORE as bait): 1; Y2H matrices (HCV proteins; [3]): +
GFAP,NS3,43,+,–
GON4L,NS3,1,+,–
HIVEP2,NS3 and CORE,3,+,IMAP Y2H IMAP2 (number of IST) ([1]; HCV protein CORE as bait): 2; IMAP Y2H IMAP2 (number of IST) ([1]; HCV protein NS3 as bait): 5
HNRPK,–,–,–,IMAP Y2H IMAP2 (number of IST) ([1]; HCV protein CORE as bait): 14; IMAP Y2H IMAP2 (number of IST) ([1]; HCV protein NS3 as bait): 1

Substance,Interaction with viral protein [2],IMAP Y2H IMAP1 (number of IST) ([1]; HCV protein NS3 as bait),Y2H matrices (HCV proteins; [4]),other results
HOXD8,–,–,–,IMAP Y2H IMAP1 (number of IST) ([1]; HCV protein CORE as bait): 1; IMAP Y2H IMAP1 (number of IST) ([1]; HCV protein E2 as bait): 1; IMAP Y2H IMAP1 (number of IST) ([1]; HCV protein NS2 as bait): 1; IMAP Y2H IMAP1 (number of IST) ([1]; HCV protein NS4A as bait): 1; IMAP Y2H IMAP1 (number of IST) ([1]; HCV protein NS5B as bait): 1; Y2H matrices (HCV proteins; [5]): +; Y2H matrices (HCV proteins; [3]): +; Y2H matrices (HCV proteins; [6]): +; Y2H matrices (HCV proteins; [7]): +; Y2H matrices (HCV proteins; [8]): +
ITGB1,–,–,–,IMAP Y2H IMAP1 (number of IST) ([1]; HCV protein E2 as bait): 1; Y2H matrices (HCV proteins; [6]): +
ITGB4,NS3,7,+,–
JAG2,NS3,1,+,–
JUN,–,8,+,IMAP Y2H IMAP1 (number of IST) ([1]; HCV protein E1 as bait): 1; Y2H matrices (HCV proteins; [9]): +
KHDRBS1,NS3,4,+,–
KIAA1549,NS3,1,+,–
LAMA5,NS3,1,+,–
LAMB2,NS3,1,+,–
LAMC3,NS3,1,+,–
LRRC7,NS3,–,–,IMAP Y2H IMAP2 (number of IST) ([1]; HCV protein NS3 as bait): 6
LTBP4,NS3 and CORE,2,+,IMAP Y2H IMAP1 (number of IST) ([1]; HCV protein CORE as bait): 4; Y2H matrices (HCV proteins; [3]): +
MAPK7,NS3,4,+,–
MEGF6,CORE,–,–,IMAP Y2H IMAP1 (number of IST) ([1]; HCV protein CORE as bait): 1; Y2H matrices (HCV proteins; [3]): +
MEGF8,NS3,2,+,–
MLLT4,NS3,2,+,–
MVP,NS3,1,+,–
NCAN,NS3,1,+,–
NDC80,NS3,–,–,IMAP Y2H IMAP2 (number of IST) ([1]; HCV protein NS3 as bait): 1
NELL2,NS3,11,+,–
NOTCH1,NS3,2,+,–
NR4A1,–,–,–,IMAP Y2H IMAP1 (number of IST) ([1]; HCV protein CORE as bait): 31; IMAP Y2H IMAP1 (number of IST) ([1]; HCV protein E1 as bait): 14; IMAP Y2H IMAP1 (number of IST) ([1]; HCV protein E2 as bait): 6; IMAP Y2H IMAP1 (number of IST) ([1]; HCV protein NS2 as bait): 5; IMAP Y2H IMAP1 (number of IST) ([1]; HCV protein NS4A as bait): 3; IMAP Y2H IMAP1 (number of IST) ([1]; HCV protein NS5B as bait): 8; Y2H matrices (HCV proteins; [5]): +; Y2H matrices (HCV proteins; [3]): +; Y2H matrices (HCV proteins; [9]): +; Y2H matrices (HCV proteins; [6]): +; Y2H matrices (HCV proteins; [7]): +; Y2H matrices (HCV proteins; [8]): +
OBSCN,NS3,1,–,–
PARP4,NS3,8,+,–
PDE4DIP,NS3,3,+,–
PSMA6,–,–,–,IMAP Y2H IMAP1 (number of IST) ([1]; HCV protein E2 as bait): 1; Y2H matrices (HCV proteins; [6]): +
PSME3,NS3,10,+,–

Substance,Interaction with viral protein [2],IMAP Y2H IMAP1 (number of IST) ([1]; HCV protein NS3 as bait),Y2H matrices (HCV proteins; [4]),other results
RGNEF,NS3,1,+,–
RICS,NS3,3,+,IMAP Y2H IMAP2 (number of IST) ([1]; HCV protein NS3 as bait): 1
RINT1,NS3,1,+,–
RNF31,NS3 and CORE,1,+,IMAP Y2H IMAP1 (number of IST) ([1]; HCV protein CORE as bait): 1; Y2H matrices (HCV proteins; [3]): +
ROGDI,NS3,–,–,IMAP Y2H IMAP2 (number of IST) ([1]; HCV protein NS3 as bait): 1
RUSC2,NS3,21,+,IMAP Y2H IMAP2 (number of IST) ([1]; HCV protein NS3 as bait): 1
SBF1,NS3,1,+,–
SETD2,–,–,–,IMAP Y2H IMAP1 (number of IST) ([1]; HCV protein CORE as bait): 5; IMAP Y2H IMAP1 (number of IST) ([1]; HCV protein E1 as bait): 2; IMAP Y2H IMAP1 (number of IST) ([1]; HCV protein E2 as bait): 1; IMAP Y2H IMAP1 (number of IST) ([1]; HCV protein NS2 as bait): 1; IMAP Y2H IMAP1 (number of IST) ([1]; HCV protein NS5B as bait): 3; Y2H matrices (HCV proteins; [5]): +; Y2H matrices (HCV proteins; [3]): +; Y2H matrices (HCV proteins; [9]): +; Y2H matrices (HCV proteins; [6]): +; Y2H matrices (HCV proteins; [7]): +
SHARPIN,NS5A,–,–,IMAP Y2H IMAP2 (number of IST) ([1]; HCV protein NS5A as bait): 2; IMAP Y2H IMAP2 (number of IST) ([1]; HCV protein NS5B as bait): 1
SLIT1,NS3,7,+,–
SMYD3,NS5A,–,–,IMAP Y2H IMAP1 (number of IST) ([1]; HCV protein NS5A as bait): 1; Y2H matrices (HCV proteins; interaction with HCV protein NS5A): +
STAB1,NS3,4,+,–
STAT3,NS3,1,+,–
SVEP1,NS3,3,+,–
SYNE1,NS3,–,–,IMAP Y2H IMAP2 (number of IST) ([1]; HCV protein NS3 as bait): 4
TAF1,NS3,2,+,–
TGFB1I1,NS3,1,+,–
THBS1,NS5A,–,–,IMAP Y2H IMAP2 (number of IST) ([1]; HCV protein NS5A as bait): 7
TMSB4X,–,–,–,IMAP Y2H IMAP1 (number of IST) ([1]; HCV protein E1 as bait): 1; Y2H matrices (HCV proteins; [9]): +
TRIM27,NS3 and NS2,1,+,IMAP Y2H IMAP2 (number of IST) ([1]; HCV protein NS2 as bait): 1
TRIO,NS3,1,+,IMAP Y2H IMAP2 (number of IST) ([1]; HCV protein NS3 as bait): 1
TRIOBP,–,–,–,IMAP Y2H IMAP2 (number of IST) ([1]; HCV protein NS5A as bait): 2
TRIP11,NS3,1,+,–
TUBB2C,–,–,–,IMAP Y2H IMAP1 (number of IST) ([1]; HCV protein NS5B as bait): 1; Y2H matrices (HCV proteins; [5]): +
UBQLN4,–,–,–,IMAP Y2H IMAP1 (number of IST) ([1]; HCV protein p7 as bait): 3; Y2H matrices (HCV proteins; interaction with HCV protein p7): +
